B1: L10 (peptide)
peptide: NTRTAKGHYFVTTFYRNG
notes: source: synthetic peptide (Apeptide, Shanghai; purity >95%)
B2: L16 (peptide)
peptide: NYKIEMKNNKIILLD
notes: as for B1
B3: L21 (peptide)
peptide: ENFKFFGQYANLKELRK
notes: as for B1
B4: L26 (peptide)
peptide: DEIVKELRSRYNISTEKSPILKMHIDGDLKGSSVGYRKLEIDFSKRENSKLSVIEFLSYKPAKK
notes: as for B1
B5: L15 (peptide)
peptide: TAKGHYFVTTFYRNG
notes: as for B1
B6: L13 (peptide)
peptide: GHYFVTTFY
notes: as for B1

Target: T1, recombinant Hsp90α (human, UniProt P07900 1-732)
T1 construct: source: bought: Abcam (recombinant)
Experiment: far-Western, overlay or dot blot
Settings: both partners purified

Binder | binding result
B1 | binds
B2 | binds
B3 | binds
B4 | binds
B5 | binds
B6 | binds

Source: publication PMC10117725, “From an Hsp90 - binding protein to a peptide drug” (microLife, 2022)
